Assay results: article PMC5909953 (Current biology : CB, 2017)

Biological target: the molecule itself
Test: single molecule photobleaching

B1: Kif15-FL-GFP-His6 (natural protein, human, UniProt Q9NS87 1-1388, looked up)
chain: MAPGCKTELRSVTNGQSNQPSNEGDAIKVFVRIRPPAERSGSADGEQNLCLSVLSSTSLRLHSNPEPKTFTFDHVADVDTTQESVFATVAKSIVESCMSGYNGTIFAYGQTGSGKTFTMMGPSESDNFSHNLRGVIPRSFEYLFSLIDREKEKAGAGKSFLCKCSFIEIYNEQIYDLLDSASAGLYLREHIKKGVFVVGAVEQVVTSAAEAYQVLSGGWRNRRVASTSMNRESSRSHAVFTITIESMEKSNEIVNIRTSLLNLVDLAGSERQKDTHAEGMRLKEAGNINRSLSCLGQVITALVDVGNGKQRHVCYRDSKLTFLLRDSLGGNAKTAIIANVHPGSRCFGETLSTLNFAQRAKLIKNKAVVNEDTQGNVSQLQAEVKRLKEQLAELASGQTPPESFLTRDKKKTNYMEYFQEAMLFFKKSEQEKKSLIEKVTQLEDLTLKKEKFIQSNKMIVKFREDQIIRLEKLHKESRGGFLPEEQDRLLSELRNEIQTLREQIEHHPRVAKYAMENHSLREENRRLRLLEPVKRAQEMDAQTIAKLEKAFSEISGMEKSDKNQQGFSPKAQKEPCLFANTEKLKAQLLQIQTELNNSKQEYEEFKELTRKRQLELESELQSLQKANLNLENLLEATKACKRQEVSQLNKIHAETLKIITTPTKAYQLHSRPVPKLSPEMGSFGSLYTQNSSILDNDILNEPVPPEMNEQAFEAISEELRTVQEQMSALQAKLDEEEHKNLKLQQHVDKLEHHSTQMQELFSSERIDWTKQQEELLSQLNVLEKQLQETQTKNDFLKSEVHDLRVVLHSADKELSSVKLEYSSFKTNQEKEFNKLSERHMHVQLQLDNLRLENEKLLESKACLQDSYDNLQEIMKFEIDQLSRNLQNFKKENETLKSDLNNLMELLEAEKERNNKLSLQFEEDKENSSKEILKVLEAVRQEKQKETAKCEQQMAKVQKLEESLLATEKVISSLEKSRDSDKKVVADLMNQIQELRTSVCEKTETIDTLKQELKDINCKYNSALVDREESRVLIKKQEVDILDLKETLRLRILSEDIERDMLCEDLAHATEQLNMLTEASKKHSGLLQSAQEELTKKEALIQELQHKLNQKKEEVEQKKNEYNFKMRQLEHVMDSAAEDPQSPKTPPHFQTHLAKLLETQEQEIEDGRASKTSLEHLVTKLNEDREVKNAEILRMKEQLREMENLRLESQQLIEKNWLLQGQLDDIKRQKENSDQNHPDNQQLKNEQEESIKERLAKSKIVEEMLKMKADLEEVQSALYNKEMECLRMTDEVERTQTLESKAFQEKEQLRSKLEEMYEERERTSQEMEMLRKQVECLAEENGKLVGHQNLHQKIQYVVRLKKENVRLAEETEKLRAENVFLKEKKRSES
stoichiometry N: 2
